# Assay results taken from patent publication US20230322953A1 (HARBOUR BIOMED SHANGHAI, published 2023).
# Target: T1, human CD3 (TCR/CD3 complex) on human T cells (human, UniProt P07766 23-207)
# T1 construct: whole, on cells
# Assay: flow cytometry (FACS) on human T cells, Experiment 1
# T1 sequence (P07766 23-207, one chain of several): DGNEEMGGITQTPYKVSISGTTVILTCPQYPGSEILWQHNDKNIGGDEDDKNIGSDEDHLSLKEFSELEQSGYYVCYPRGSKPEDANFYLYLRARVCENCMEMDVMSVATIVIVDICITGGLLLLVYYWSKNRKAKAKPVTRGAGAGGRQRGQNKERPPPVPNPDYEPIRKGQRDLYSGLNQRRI
row,Maximum MFI,Binder
1,3380 MFI,"PR001994 (bispecific antibody, human IgG1, kappa, L234A L235A, Structure 12 (Fab(cross VH/VL)-Fc-VH): CD3 Fab from PR000511, BCMA VH from PR001046; IgG1 knob/hole, AAG) chain 1: EVQLLESGGGLVQPGGSLRLSCAASGFTFNTYAMNWVRQAPGKGLEWVSRIRSKYNNYATYYADSVKDRFTISRDDSKSTLYLQMNSLRAEDTAVYYCVRHGNFGNSYVSWFAYWGQGTLVTVSSRTVAAPSVFIFPPSDEQLKSGTASVVCLLNNFYPREAKVQWKVDNALQSGNSQESVTEQDSKDSTYSLSSTLTLSKADYEKHKVYACEVTHQGLSSPVTKSFNRGEC chain 2: QAVVTQEPSLTVSPGGTVTLTCRSSTGAVTTSNYANWVQQKPGQAPRGLIGGTNKRAPWTPARFSGSLLGDKAALTLLGAQPEDEAEYFCALWYSNLWVFGGGTKLTVLSSASTKGPSVFPLAPSSKSTSGGTAALGCLVKDYFPEPVTVSWNSGALTSGVHTFPAVLQSSGLYSLSSVVTVPSSSLGTQTYICNVNHKPSNTKVDKKVEPKSCDKTHTCPPCPAPEAAGGPSVFLFPPKPKDTLMISRTPEVTCVVVDVSHEDPEVKFNWYVDGVEVHNAKTKPREEQYNSTYRVVSVLTVLHQDWLNGKEYKCKVSNKALGAPIEKTISKAKGQPREPQVYTLPPCREEMTKNQVSLWCLVKGFYPSDIAVEWESNGQPENNYKTTPPVLDSDGSFFLYSKLTVDKSRWQQGNVFSCSVMHEALHNHYTQKSLSLSPGK chain 3: EVQLVETGGGLIQPGGSLRLSCAASGFTVSDNYMTWVRQAPGKGLEWVSVIFSGGNTYYADSVKGRFTISRDNAKNTLYLQMNSLRAEDTALYYCARRNYDDTRGTDVFDIWGQGTMVTVSSASEPKSSDKTHTCPPCPAPEAAGGPSVFLFPPKPKDTLMISRTPEVTCVVVDVSHEDPEVKFNWYVDGVEVHNAKTKPREEQYNSTYRVVSVLTVLHQDWLNGKEYKCKVSNKALGAPIEKTISKAKGQPREPQVCTLPPSREEMTKNQVSLSCAVKGFYPSDIAVEWESNGQPENNYKTTPPVLDSDGSFFLVSKLTVDKSRWQQGNVFSCSVMHEALHNHYTQKSLSLSPGK"

# Target: T1, human CD3 (TCR/CD3 complex) on human T …
# Assay: flow cytometry (FACS) on human T cells, Experiment 2
# Procedure: The binding ability of the antibody molecules to human or cynomolgus monkey T cells was tested by flow cytometry FACS. […] The T cell density was adjusted to 1×10⁶ cells/mL. […] The cells were incubated at 4° C. for 1 h away from light. Then, the cells in each well were rinsed twice with 100 μL of pre-cooled PBS, and centrifuged at 500 g at 4° C. for 5 min, and then the supernatant was discarded. […] The cells in each well were rinsed twice with 100 μL of pre-cooled PBS, and centrifuged at 500 g at 4° C. for 5 min, and then the supernatant was discarded. Finally, the cells in each well were resuspended in 200 μL of pre-cooled PBS. Fluorescence signal values were read using a BD FACS CANTOII flow cytometer or an ACEA NovoCyte flow cytometer, and the data were processed and analyzed using FlowJo v10 (FlowJo, LLC) software. The data were processed and analyzed by plotting using GraphPad Prism 8 software, and binding curves of the antibodies to target cells, EC₅₀ values and other parameters were obtained through four-parameter nonlinear fitting.
row,Maximum MFI,Binder
1,2920 MFI,"PR001995 (bispecific antibody, IgG1, CD3 Fab from PR000511, BCMA VH from PR000940; IgG1 knob/hole, AAG) chain 1: EVQLLESGGGLVQPGGSLRLSCAASGFTFNTYAMNWVRQAPGKGLEWVSRIRSKYNNYATYYADSVKDRFTISRDDSKSTLYLQMNSLRAEDTAVYYCVRHGNFGNSYVSWFAYWGQGTLVTVSSASTKGPSVFPLAPSSKSTSGGTAALGCLVKDYFPEPVTVSWNSGALTSGVHTFPAVLQSSGLYSLSSVVTVPSSSLGTQTYICNVNHKPSNTKVDKKVEPKSC chain 2: QAVVTQEPSLTVSPGGTVTLTCRSSTGAVTTSNYANWVQQKPGQAPRGLIGGTNKRAPWTPARFSGSLLGDKAALTLLGAQPEDEAEYFCALWYSNLWVFGGGTKLTVLGQPKAAPSVTLFPPSSEELQANKATLVCLISDFYPGAVTVAWKADSSPVKAGVETTTPSKQSNNKYAASSYLSLTPEQWKSHRSYSCQVTHEGSTVEKTVAPTECSDKTHTCPPCPAPEAAGGPSVFLFPPKPKDTLMISRTPEVTCVVVDVSHEDPEVKFNWYVDGVEVHNAKTKPREEQYNSTYRVVSVLTVLHQDWLNGKEYKCKVSNKALGAPIEKTISKAKGQPREPQVYTLPPCREEMTKNQVSLWCLVKGFYPSDIAVEWESNGQPENNYKTTPPVLDSDGSFFLYSKLTVDKSRWQQGNVFSCSVMHEALHNHYTQKSLSLSPGK chain 3: EVQLLESGGGLVQPGGSLRLSCAASGFTFSSYAMIWVRQAPGKGLEWVSGISESGGSTYYADSVKGRFTISRDNSKNTLYLQMNSLRAEDTAVYFCVKDLDDILTGYYKDYWGQGTLVTVSSASEPKSSDKTHTCPPCPAPEAAGGPSVFLFPPKPKDTLMISRTPEVTCVVVDVSHEDPEVKFNWYVDGVEVHNAKTKPREEQYNSTYRVVSVLTVLHQDWLNGKEYKCKVSNKALGAPIEKTISKAKGQPREPQVCTLPPSREEMTKNQVSLSCAVKGFYPSDIAVEWESNGQPENNYKTTPPVLDSDGSFFLVSKLTVDKSRWQQGNVFSCSVMHEALHNHYTQKSLSLSPGK"
2,3320 MFI,"PR001998 (bispecific antibody, IgG1, Structure 13 (Fab(cross Fd/LC)-Fc-VH): CD3 Fab from PR000511, BCMA VH from PR001046; IgG1 knob/hole, AAG) chain 1: EVQLLESGGGLVQPGGSLRLSCAASGFTFNTYAMNWVRQAPGKGLEWVSRIRSKYNNYATYYADSVKDRFTISRDDSKSTLYLQMNSLRAEDTAVYYCVRHGNFGNSYVSWFAYWGQGTLVTVSSASTKGPSVFPLAPSSKSTSGGTAALGCLVKDYFPEPVTVSWNSGALTSGVHTFPAVLQSSGLYSLSSVVTVPSSSLGTQTYICNVNHKPSNTKVDKKVEPKSC chain 2: QAVVTQEPSLTVSPGGTVTLTCRSSTGAVTTSNYANWVQQKPGQAPRGLIGGTNKRAPWTPARFSGSLLGDKAALTLLGAQPEDEAEYFCALWYSNLWVFGGGTKLTVLGQPKAAPSVTLFPPSSEELQANKATLVCLISDFYPGAVTVAWKADSSPVKAGVETTTPSKQSNNKYAASSYLSLTPEQWKSHRSYSCQVTHEGSTVEKTVAPTECSDKTHTCPPCPAPEAAGGPSVFLFPPKPKDTLMISRTPEVTCVVVDVSHEDPEVKFNWYVDGVEVHNAKTKPREEQYNSTYRVVSVLTVLHQDWLNGKEYKCKVSNKALGAPIEKTISKAKGQPREPQVYTLPPCREEMTKNQVSLWCLVKGFYPSDIAVEWESNGQPENNYKTTPPVLDSDGSFFLYSKLTVDKSRWQQGNVFSCSVMHEALHNHYTQKSLSLSPGK chain 3: EVQLVETGGGLIQPGGSLRLSCAASGFTVSDNYMTWVRQAPGKGLEWVSVIFSGGNTYYADSVKGRFTISRDNAKNTLYLQMNSLRAEDTALYYCARRNYDDTRGTDVFDIWGQGTMVTVSSASEPKSSDKTHTCPPCPAPEAAGGPSVFLFPPKPKDTLMISRTPEVTCVVVDVSHEDPEVKFNWYVDGVEVHNAKTKPREEQYNSTYRVVSVLTVLHQDWLNGKEYKCKVSNKALGAPIEKTISKAKGQPREPQVCTLPPSREEMTKNQVSLSCAVKGFYPSDIAVEWESNGQPENNYKTTPPVLDSDGSFFLVSKLTVDKSRWQQGNVFSCSVMHEALHNHYTQKSLSLSPGK"
3,1170 MFI,"PR001999 (bispecific antibody, IgG1, IgG1 knob/hole, AAG) chain 1: QAVVTQEPSLTVSPGGTVTLTCRSSTGAVTTSNYANWVQQKPGQAPRGLIGGTNKRAPWTPARFSGSLLGDKAALTLLGAQPEDEAEYFCALWYSNLWVFGGGTKLTVLGGGQSGQGGSGGGGSEVQLVESGGGLVQPGGSLKLSCAASGFTFNTYAMNWVRQASGKGLEWVGRIRSKYNNYATYYADSVKDRFTISRDDSKSTLYLQMNSLKTEDTAVYYCVRHGNFGNSYVSWFAYWGQGTLVTVSSASEPKSSDKTHTCPPCPAPEAAGGPSVFLFPPKPKDTLMISRTPEVTCVVVDVSHEDPEVKFNWYVDGVEVHNAKTKPREEQYNSTYRVVSVLTVLHQDWLNGKEYKCKVSNKALGAPIEKTISKAKGQPREPQVYTLPPCREEMTKNQVSLWCLVKGFYPSDIAVEWESNGQPENNYKTTPPVLDSDGSFFLYSKLTVDKSRWQQGNVFSCSVMHEALHNHYTQKSLSLSPGK chain 2: EVQLLESGGGLVQPGGSLRLSCAASGFTFSSYAMIWVRQAPGKGLEWVSGISESGGSTYYADSVKGRFTISRDNSKNTLYLQMNSLRAEDTAVYFCVKDLDDILTGYYKDYWGQGTLVTVSSASEPKSSDKTHTCPPCPAPEAAGGPSVFLFPPKPKDTLMISRTPEVTCVVVDVSHEDPEVKFNWYVDGVEVHNAKTKPREEQYNSTYRVVSVLTVLHQDWLNGKEYKCKVSNKALGAPIEKTISKAKGQPREPQVCTLPPSREEMTKNQVSLSCAVKGFYPSDIAVEWESNGQPENNYKTTPPVLDSDGSFFLVSKLTVDKSRWQQGNVFSCSVMHEALHNHYTQKSLSLSPGK"
4,3440 MFI,"PR001996 (bispecific antibody, IgG1, Structure 13 (Fab(cross Fd/LC)-Fc-VH): CD3 Fab from PR000511, BCMA VH from PR000943; IgG1 knob/hole, AAG) chain 1: EVQLLESGGGLVQPGGSLRLSCAASGFTFNTYAMNWVRQAPGKGLEWVSRIRSKYNNYATYYADSVKDRFTISRDDSKSTLYLQMNSLRAEDTAVYYCVRHGNFGNSYVSWFAYWGQGTLVTVSSASTKGPSVFPLAPSSKSTSGGTAALGCLVKDYFPEPVTVSWNSGALTSGVHTFPAVLQSSGLYSLSSVVTVPSSSLGTQTYICNVNHKPSNTKVDKKVEPKSC chain 2: QAVVTQEPSLTVSPGGTVTLTCRSSTGAVTTSNYANWVQQKPGQAPRGLIGGTNKRAPWTPARFSGSLLGDKAALTLLGAQPEDEAEYFCALWYSNLWVFGGGTKLTVLGQPKAAPSVTLFPPSSEELQANKATLVCLISDFYPGAVTVAWKADSSPVKAGVETTTPSKQSNNKYAASSYLSLTPEQWKSHRSYSCQVTHEGSTVEKTVAPTECSDKTHTCPPCPAPEAAGGPSVFLFPPKPKDTLMISRTPEVTCVVVDVSHEDPEVKFNWYVDGVEVHNAKTKPREEQYNSTYRVVSVLTVLHQDWLNGKEYKCKVSNKALGAPIEKTISKAKGQPREPQVYTLPPCREEMTKNQVSLWCLVKGFYPSDIAVEWESNGQPENNYKTTPPVLDSDGSFFLYSKLTVDKSRWQQGNVFSCSVMHEALHNHYTQKSLSLSPGK chain 3: EVQLVETGGGLIQPGGSLRLSCAASGFPVSSNYMSWVRQAPGKGLEWVSVIFSGGRTYYADSVKGRFTISRDNSKNTLYLQMNSLRAEDTAVYYCARRNWIDGRDAFDIWGQGTMVTVSSASEPKSSDKTHTCPPCPAPEAAGGPSVFLFPPKPKDTLMISRTPEVTCVVVDVSHEDPEVKFNWYVDGVEVHNAKTKPREEQYNSTYRVVSVLTVLHQDWLNGKEYKCKVSNKALGAPIEKTISKAKGQPREPQVCTLPPSREEMTKNQVSLSCAVKGFYPSDIAVEWESNGQPENNYKTTPPVLDSDGSFFLVSKLTVDKSRWQQGNVFSCSVMHEALHNHYTQKSLSLSPGK"
5,4460 MFI,"PR001997 (bispecific antibody, IgG1, Structure 13 (Fab(cross Fd/LC)-Fc-VH): CD3 Fab from PR000511, BCMA VH from PR001035; IgG1 knob/hole, AAG) chain 1: EVQLLESGGGLVQPGGSLRLSCAASGFTFNTYAMNWVRQAPGKGLEWVSRIRSKYNNYATYYADSVKDRFTISRDDSKSTLYLQMNSLRAEDTAVYYCVRHGNFGNSYVSWFAYWGQGTLVTVSSASTKGPSVFPLAPSSKSTSGGTAALGCLVKDYFPEPVTVSWNSGALTSGVHTFPAVLQSSGLYSLSSVVTVPSSSLGTQTYICNVNHKPSNTKVDKKVEPKSC chain 2: QAVVTQEPSLTVSPGGTVTLTCRSSTGAVTTSNYANWVQQKPGQAPRGLIGGTNKRAPWTPARFSGSLLGDKAALTLLGAQPEDEAEYFCALWYSNLWVFGGGTKLTVLGQPKAAPSVTLFPPSSEELQANKATLVCLISDFYPGAVTVAWKADSSPVKAGVETTTPSKQSNNKYAASSYLSLTPEQWKSHRSYSCQVTHEGSTVEKTVAPTECSDKTHTCPPCPAPEAAGGPSVFLFPPKPKDTLMISRTPEVTCVVVDVSHEDPEVKFNWYVDGVEVHNAKTKPREEQYNSTYRVVSVLTVLHQDWLNGKEYKCKVSNKALGAPIEKTISKAKGQPREPQVYTLPPCREEMTKNQVSLWCLVKGFYPSDIAVEWESNGQPENNYKTTPPVLDSDGSFFLYSKLTVDKSRWQQGNVFSCSVMHEALHNHYTQKSLSLSPGK chain 3: EVQLVETGGGLIQPGGSLRLSCAASGFTVSSNYMTWVRQAPGKGLEWVSVIFSGGSTYYADSVKGRFTISRDNSKNTLYLQMNSLRAEDTAVYYCARRIAVAGHDVFDIWGQGTMVTVSSASEPKSSDKTHTCPPCPAPEAAGGPSVFLFPPKPKDTLMISRTPEVTCVVVDVSHEDPEVKFNWYVDGVEVHNAKTKPREEQYNSTYRVVSVLTVLHQDWLNGKEYKCKVSNKALGAPIEKTISKAKGQPREPQVCTLPPSREEMTKNQVSLSCAVKGFYPSDIAVEWESNGQPENNYKTTPPVLDSDGSFFLVSKLTVDKSRWQQGNVFSCSVMHEALHNHYTQKSLSLSPGK"
